# Reference: the supplement of paper PMC9170038
# Test system: MS2 coat protein
# Experiment: apparent KD of MS2 coat protein; designed switch direction (-1 OFF switch, 1 ON switch): -1; higher = weaker reporter binding
# How it was run: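 The buffer was Tris-HCl pH 7.5 with KCl, MgCl2, BSA, DTT, tRNA and Tween-20. In it, SNAP-549-labelled MS2 coat protein was titrated in doubling steps from 0.7 or 1.5 nM to 3 µM over chip-bound RNA switches transcribed by stalled E. coli RNA polymerase on Illumina chips. Apparent KD is the per-design median over clusters of curve fits to normalised fluorescence.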
# [1] = input ligand: microRNA oligo, concentration not stated
# [2] = Eterna round: R95, input ligand: FMN 200 uM
# [3] = Eterna round: R95, input ligand: microRNA oligo, concentration not stated
# [4] = Eterna round: R95, input ligand: none
Sequence,apparent KD of MS2 coat protein (input ligand: FMN 200 uM),apparent KD of MS2 coat protein [1],apparent KD of MS2 coat protein (input ligand: none),apparent KD of MS2 coat protein [2],apparent KD of MS2 coat protein [3],apparent KD of MS2 coat protein [4]
"UUAAUUCUGAUUCUUGAAAUACAUGAGGAUCACCCAUGUUCACAGGAUAUUGAUUAUGUUAGUUACAAGAAGGGUGUAUCAUAU [JR_ExcNG3_Sub038] (Eterna round: R96, puzzle: Exclusion NG 3)",38.9 nM,26.8 nM,30.6 nM,,,
"UUACAAUGUCACUUACAAGCUUUUUGCUCGUCUUAUAUUACAUGAGGAUCACCCAUGUAGAUCAUGUGGCGUGACCU [JL ViennaUCT Maridi mod 10] (puzzle: Sensor v3, turn-off variant 2)",,,,145 nM,46.7 nM,151 nM
"UUAGCGUAAGUAAGGAUAUGCUGGUCUAAUGAUCAGCAGAAGGUACAUGAGGAUCACCCAUGUGGAUUCGUUAU [Mod of JL 10 - Jieux - Brourd's mod of Exclusion 4] (Eterna round: R97, puzzle: Brourd's mod of Exclusion 4)",35.8 nM,,19.2 nM,,,
"UUAGGCGUCUUUGCUCGUCUUAUUUGGAGAUGACUGUUAACAUGAGGAUCACCCAUGUGUGUGGGAGCUUUGCAGUU [JR_SV3TOV2_Sub022] (puzzle: Sensor v3, turn-off variant 2)",,,,215 nM,377 nM,271 nM
"UUAGGUAAAGGAUAUGUAUGGGCGACCCAUAUGACCGAGUGACAUGAGGAUCACCCAUGUAGAAGGUUGCUGAU [Eternabot (L1) Solution 60] (Eterna round: R97, puzzle: Exclusion 2)",125 nM,,95.7 nM,,,
UUAUAAAGUGUGAGGAUAUGCUGGUCCUUAGAUCAGCAGAAGGCACAUGAGGAUCACCCAUGUAAUAUAUUUUU [Mat - Exclusion 4 - JL Mod - D42] (puzzle: Brourd's mod of Exclusion 4),,,,,33.9 nM,
UUAUAGAGAGGAUAUAUAAUGUGAAACAUGAGGAUCACCCAUGUAAUAUUAUGGAUGUAAAUAGAAGGCUCAAUUU [Mat - Exclusion 5 - JL mod - D14] (puzzle: Exclusion 5),,,,29.3 nM,30.6 nM,32.4 nM
"UUAUAGGCAGGAUAUACAUGAGGAUCACCCAUGUAAAUUUUUCGUUUAACUUGAAUGUGUAGAAGGGCCAUAUU [Ex3 #57] (Eterna round: R97, puzzle: Exclusion 3)",22.3 nM,,21.6 nM,,,
"UUAUGAGUAGGAUAUGAGCCAAAAUACAUGAGGAUCACCCAUGUCGGGUUCAUGGAGGGCUCAGAAGGAUUCAAUA [Exclusion 5 - Laarte Mod] (Eterna round: R97, puzzle: Exclusion 5)",105 nM,,17 nM,,,
"UUAUUAAAUGUAGGAUAUGCAUAUUAUUAUUAUGCAGAAGGACAUGAGGAUCACCCAUGUAUAUUAUUAUUAUUUAUUAUAUAU [Title] (Eterna round: R96, puzzle: Exclusion NG 1)",,36.1 nM,,,,
"UUAUUAUAUGUAGGAUAUGCAUAUUAUUAUUAUGCAGAAGGACAUGAGGAUCACCCAUGUAUGUUAUUAUUAUAUAUUAUAUAU [Title] (Eterna round: R96, puzzle: Exclusion NG 1)",,20.7 nM,,,,
"UUAUUAUAUGUAGGAUAUGCGUAUUAUUGUUAUGCAGAAGGACAUGAGGAUCACCCAUGUAUAUUAUUGUUGUAUAUUAUAUAU [Title] (Eterna round: R96, puzzle: Exclusion NG 1)",,20.7 nM,,,,
"UUCACAUGGACAUAAGAUCACAUGAGGAUCACCCAUGUGAAUAACAAGCUUUUUGUUCGUCUUAUGUCCAAUAAUAA [Stov1/14-B1] (Eterna round: R97, puzzle: Sensor, turn-off variant 1)",12.3 nM,,12.6 nM,,,
"UUCAUGUGAGGAUAUUAGUAGUAAAUAAAUAAAAUUAUUACUGAGAAGGUACAUGAGGAUCACCCAUGUUCCUU [Salish 062 v22] (Eterna round: R97, puzzle: Exclusion 4)",18.5 nM,,13.9 nM,,,
UUCCUACAUGAGGAUCACCCAUGUCAGGAUAUCUCCUCACCGCGAAAAGGCGGUGAAAAGAGAAGGGACAGGAA [Usbian] (puzzle: Exclusion 1),,,,16 nM,10.7 nM,13.8 nM
"UUCCUCACUUCUUUGUCUCACAUGAGGAUCACCCAUGUAAUAUAGGAUAUGCUUAGUAUUUUUAUGCAGAAGGAUAUUAGUUUU [JR_ExcNG3_Sub085] (Eterna round: R96, puzzle: Exclusion NG 3)",169 nM,32.8 nM,39.8 nM,,,
"UUCCUCAUAACAUGAGGAUCACCCAUGUAUUAUUUGGUAACUGAGGAUAUACUUUUAAUGUUUAUGUAGAAGGCAGAUACAGUU [JR_ExcNG3_Sub017] (Eterna round: R96, puzzle: Exclusion NG 3)",165 nM,80.4 nM,109 nM,,,

Sequence,apparent KD of MS2 coat protein (input ligand: FMN 200 uM),apparent KD of MS2 coat protein [1],apparent KD of MS2 coat protein (input ligand: none),apparent KD of MS2 coat protein [2],apparent KD of MS2 coat protein [3],apparent KD of MS2 coat protein [4]
"UUCGUGCAGCAAAGCUGUACGCGUACAUGAGGAUCACCCAUGUAGGAUAUGGUAGGCAAAGCUUACUAGAAGGAUAUGGUGAGC [Mat - Exclusion NG 3 - Mod of JL - D80] (Eterna round: R96, puzzle: Exclusion NG 3)",51.9 nM,36.8 nM,35.2 nM,,,
"UUCUCGACAUGAGGAUCACCCAUGUAGUGGGAGAAAACUGGUUAGGAUAUAAAAUAGUACACCGUUUAGAAGGGACCUAUCCUC [Eternabot solution 4] (Eterna round: R96, puzzle: Exclusion NG 3)",79.2 nM,45.7 nM,72.3 nM,,,
"UUGAUUCAUUCCUCUAUAAACAUGAGGAUCACCCAUGUAAGUGAGGAUAUAGUUGGAGUUGUAUACUAGAAGGCACUUAGUUUU [JR_ExcNG3_Sub048] (Eterna round: R96, puzzle: Exclusion NG 3)",26 nM,8.29 nM,13 nM,,,
"UUGCAGUCGUCAGGAUAUAGUAUUACGGCCUUUUAUUUUUUCAUACAUGAGGAUCACCCAUGUCGCUAGAAGGGAUUAUCGAUU [salish99_ExNG2_r04_104] (Eterna round: R96, puzzle: Exclusion NG 2)",39.6 nM,31.6 nM,41.4 nM,,,
"UUGCCACAUGAGGAUCACCCAUGUGAGGAUAUGGCCCGCCCGGCGUGUGCUGGUUCUGUCAGAAGGCGCGUGGG [salish99_ex1_r4_030] (Eterna round: R97, puzzle: Exclusion 1)",73 nM,,33.1 nM,,,
"UUGCUUUCUUAGUACUCUAUAAGUUUUUUGUUCGUUUUAACAUGAGGAUCACCCAUGUCUAGUGGAUCUGAUCGGGU [JL ViennaUCT Isreen mod 7] (puzzle: Sensor v3, turn-off variant 2)",,,,150 nM,303 nM,163 nM
"UUGGAACAUGAGGAUCACCCAUGUCAGGAUAUUCCAAAAUCGUCGAAAGACGAUAACAGAAGAAGGGACAUUAG [Fiskxlusion 9 - Jieux - Exclusion 1] (Eterna round: R97, puzzle: Exclusion 1)",124 nM,,80.2 nM,,,
"UUGUACCGGUGAGGAUAUCGUUGAUAGAACUUUAUGAUAUACAUGAGGAUCACCCAUGUUACUUUCGAGAAGGCAUCGGAUUAU [ExNG2 6th] (Eterna round: R96, puzzle: Exclusion NG 2)",12.3 nM,10.3 nM,21.8 nM,,,
"UUGUUACAUGAGGAUCACCCAUGUGAGGAUAUGGUUCAGUACUGUCAUGUCACGUACUCCAGAAGGCACAUGUU [1st #31] (Eterna round: R97, puzzle: Exclusion 1)",363 nM,,120 nM,,,
"UUGUUAUGUGUAGGAUAUGCAUAUUAUUAUUAUGCAGAAGGACAUGAGGAUCACCCAUGUAUAUUAUUAUUAUAUGUUAUAUAU [Title] (Eterna round: R96, puzzle: Exclusion NG 1)",29.3 nM,19 nM,22.8 nM,,,
"UUGUUAUGUGUAGGAUAUGCGUGUUAUUAUUAUGCAGAAGGACAUGAGGAUCACCCAUGUGUAUUGUUAUUAUAUAUUAUAUAU [Title] (Eterna round: R96, puzzle: Exclusion NG 1)",21 nM,13.2 nM,20.8 nM,,,
UUGUUUUUUGAGGAUAUGCGACGUUUUUUCGUCGUAGAAGGCGAUACAUGAGGAUCACCCAUGUUUAUGGGCAU [LRO-Ex6-14] (puzzle: Exclusion 6),,,,,122 nM,
"UUUAAGGGAAUUAAGAUCACAUGAGGAUCACCCAUGUAUAUAUAGGAUAUCAGCUCGAUUAGAGCUGAGAAGGAUAUAUACAUA [ExNG3/6-A1] (Eterna round: R96, puzzle: Exclusion NG 3)",126 nM,79.7 nM,165 nM,,,
"UUUAAUUGUCACAUGGGUGACAUGAGGAUCACCCAUGUCACAAGCUUUUUGCUCGUCUUAUAAUUAACCCAUGUGAC [Stov1/12-A1] (Eterna round: R97, puzzle: Sensor, turn-off variant 1)",13.4 nM,,13.7 nM,,,
"UUUAAUUGUCAGAUGGGUGACAUGAGGAUCACCCAUGUCACAAGCUUUUUGCUCGUCUUAUAAUUAACCCAUCUGAC [Stov1/11-A1] (Eterna round: R97, puzzle: Sensor, turn-off variant 1)",13.5 nM,,12.3 nM,,,
"UUUAAUUUAAUUAAGAUCACAUGAGGAUCACCCAUGUAAUUAUAGGAUAUCAGCUCGUGUAGAGCUGAGAAGGAUAAUUACAUA [ExNG3/5-A3] (Eterna round: R96, puzzle: Exclusion NG 3)",81.9 nM,58.2 nM,72.7 nM,,,
